Reference: FireProtDB (doi:10.1093/protein/11.3.213)
Several values for one entry are separate records, joined by “and”; a condition that tells them apart may be missing. Identical values can stand only once.

B1: Endolysin, P03706 (parent)
chain: MVEINNQRKAFLDMLAWSEGTDNGRQKTRNHGYDVIVGGELFTDYSDHPRKLVTLNPKLKSTGAGRYQLLSRWWDAYRKQLGLKDFSPKSQDAVALQQIKERGALPMIDRGDIRQAIDRCSNIWASLPGAGYGQFEHKADSLIAKFKEAGGTVREIDV

Variants of: B1
Conditions: Escherichia phage lambda; pH 4; Thermal; Fluorescence; phosphate 0.1 M; reversible: yes; structure 1AM7; whole UniProt chain shown

Variant	Tm	unfolding enthalpy (calorimetric)	unfolding enthalpy (van 't Hoff)
H31N H137N	24.5 °C and 26 °C	40.3 kcal/mol and 43.3 kcal/mol	29 kcal/mol and 35.4 kcal/mol

Same assay, conditions: Escherichia phage lambda; pH 4.5; Thermal; Fluorescence; phosphate 0.1 M; reversible: yes; structure 1AM7; whole UniProt chain shown

Variant	Tm [°C]	unfolding enthalpy (calorimetric) [kcal/mol]	unfolding enthalpy (van 't Hoff) [kcal/mol]
H31N H137N	39.3	69.9	71

Same assay, conditions: Escherichia phage lambda; pH 5.5; Thermal; Fluorescence; phosphate 0.1 M; reversible: yes; structure 1AM7; whole UniProt chain shown

Variant	Tm [°C]	unfolding enthalpy (calorimetric) [kcal/mol]	unfolding enthalpy (van 't Hoff) [kcal/mol]
H31N H137N	51.1	93.5	107

Same assay, conditions: Escherichia phage lambda; pH 6; Thermal; Fluorescence; phosphate 0.1 M; reversible: yes; structure 1AM7; whole UniProt chain shown

Variant	Tm [°C]	unfolding enthalpy (calorimetric) [kcal/mol]	unfolding enthalpy (van 't Hoff) [kcal/mol]
H31N H137N	52.7	96.7	93

Same assay, conditions: Escherichia phage lambda; pH 6.5; Thermal; Fluorescence; phosphate 0.1 M; reversible: yes; structure 1AM7; whole UniProt chain shown

Variant	Tm [°C]	unfolding enthalpy (calorimetric) [kcal/mol]	unfolding enthalpy (van 't Hoff) [kcal/mol]
H31N H137N	53.6	98.5	111

Same assay, conditions: Escherichia phage lambda; pH 6.57; Thermal; Fluorescence; phosphate 0.1 M; reversible: yes; structure 1AM7; whole UniProt chain shown

Variant	Tm [°C]	unfolding enthalpy (calorimetric) [kcal/mol]	unfolding enthalpy (van 't Hoff) [kcal/mol]
H31N H137N	50.8	92.9	100

Same assay, conditions: Escherichia phage lambda; pH 7.07; Thermal; Fluorescence; phosphate 0.1 M; reversible: yes; structure 1AM7; whole UniProt chain shown

Variant	Tm [°C]	unfolding enthalpy (calorimetric) [kcal/mol]	unfolding enthalpy (van 't Hoff) [kcal/mol]
H31N H137N	51.1	93.5	105

Same assay, conditions: Escherichia phage lambda; pH 7.57; Thermal; Fluorescence; phosphate 0.1 M; reversible: yes; structure 1AM7; whole UniProt chain shown

Variant	Tm [°C]	unfolding enthalpy (calorimetric) [kcal/mol]	unfolding enthalpy (van 't Hoff) [kcal/mol]
H31N H137N	51	93.3	101

Same assay, conditions: Escherichia phage lambda; pH 8.07; Thermal; Fluorescence; phosphate 0.1 M; reversible: yes; structure 1AM7; whole UniProt chain shown

Variant	Tm [°C]	unfolding enthalpy (calorimetric) [kcal/mol]	unfolding enthalpy (van 't Hoff) [kcal/mol]
H31N H137N	50.1	91.5	91
